Decrease of the PLA signal in the presence of CaD, VEGF165 (25 ng/ml)-induced phosphorylation of VEGFR-2 in heparanase (HPSE, 0.5 μg/ml)-treated HUVECs, with CaD (100 μM), relative to VEGF alone (Western blot) and VEGF165 (25 ng/mL)-induced phosphorylation of VEGFR-2 in HUVECs (Western blot, 2 min), VEGF165 premixed with CaD (6-100 μM) for 60 min data for one substance are collected here from paper PMC6959593.

The target of test [1] is VEGFR-2 of HUVECs (human (endogenous in HUVECs)) (UniProt P35968). Put plainly: proximity ligation; Duolink in situ PLA on HUVECs treated with VEGF/CaD for 2 min, fixed in paraformaldehyde and permeabilized; goat anti-VEGF and rabbit anti-VEGFR2 antibodies overnight at 4°C; dots per cell counted with ImageJ.
Test [2] has the same target.
Test [3] shares this target. This is another data set of the same source.

Chain of UniProt P35968 (P35968 20-1356): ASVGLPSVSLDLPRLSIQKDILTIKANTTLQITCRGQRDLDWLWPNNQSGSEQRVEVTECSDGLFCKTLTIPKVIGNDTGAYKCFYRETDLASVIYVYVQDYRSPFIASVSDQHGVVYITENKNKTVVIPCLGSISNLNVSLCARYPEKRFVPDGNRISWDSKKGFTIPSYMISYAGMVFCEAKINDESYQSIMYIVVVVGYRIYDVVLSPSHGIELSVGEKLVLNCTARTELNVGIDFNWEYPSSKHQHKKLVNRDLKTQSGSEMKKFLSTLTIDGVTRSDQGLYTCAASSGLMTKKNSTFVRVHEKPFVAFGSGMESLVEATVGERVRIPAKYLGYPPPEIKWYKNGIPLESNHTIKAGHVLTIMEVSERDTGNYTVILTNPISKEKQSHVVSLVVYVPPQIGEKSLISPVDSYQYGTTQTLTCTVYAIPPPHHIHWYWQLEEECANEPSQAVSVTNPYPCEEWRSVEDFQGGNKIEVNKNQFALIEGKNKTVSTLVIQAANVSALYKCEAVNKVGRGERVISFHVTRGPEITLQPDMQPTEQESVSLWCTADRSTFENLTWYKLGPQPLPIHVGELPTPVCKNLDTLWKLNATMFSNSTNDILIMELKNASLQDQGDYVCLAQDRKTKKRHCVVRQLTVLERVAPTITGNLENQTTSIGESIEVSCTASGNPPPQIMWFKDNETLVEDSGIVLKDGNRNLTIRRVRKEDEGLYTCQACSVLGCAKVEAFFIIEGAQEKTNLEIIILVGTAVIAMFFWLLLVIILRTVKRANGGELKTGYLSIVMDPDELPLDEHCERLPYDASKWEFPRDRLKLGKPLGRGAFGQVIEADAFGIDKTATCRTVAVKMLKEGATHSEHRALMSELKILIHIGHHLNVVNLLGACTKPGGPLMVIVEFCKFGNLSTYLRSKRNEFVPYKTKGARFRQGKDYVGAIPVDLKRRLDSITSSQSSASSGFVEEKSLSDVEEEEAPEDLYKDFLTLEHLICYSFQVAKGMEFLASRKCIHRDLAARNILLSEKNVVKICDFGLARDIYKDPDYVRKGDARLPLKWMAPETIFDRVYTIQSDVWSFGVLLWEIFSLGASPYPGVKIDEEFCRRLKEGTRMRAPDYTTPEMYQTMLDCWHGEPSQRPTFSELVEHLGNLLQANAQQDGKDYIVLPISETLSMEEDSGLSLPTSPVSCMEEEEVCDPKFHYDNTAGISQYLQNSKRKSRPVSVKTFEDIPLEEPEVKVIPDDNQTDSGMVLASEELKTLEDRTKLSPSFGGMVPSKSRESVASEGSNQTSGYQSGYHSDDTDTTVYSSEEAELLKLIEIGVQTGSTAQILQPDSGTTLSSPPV

On to recombinant VEGF165 (ligand), for which, in test [1], the decrease of the PLA signal in the presence of CaD was determined as 60%. The VEGF165 (25 ng/ml)-induced phosphorylation of VEGFR-2 in heparanase (HPSE, 0.5 μg/ml)-treated HUVECs, with CaD (100 μM), relative to VEGF alone (Western blot) in test [2] worked out at 50%. In addition, in test [3], the VEGF165 (25 ng/mL)-induced phosphorylation of VEGFR-2 in HUVECs (Western blot, 2 min), VEGF165 premixed with CaD (6-100 μM) for 60 min was less than 50%.
